Substitutions are numbered along the chain they refer to.
T1: CD19 on RAJI (CD19+) cells (UniProt P15391 20-556, limits assumed)
T1 construct: whole, on cells
T1 sequence (looked up): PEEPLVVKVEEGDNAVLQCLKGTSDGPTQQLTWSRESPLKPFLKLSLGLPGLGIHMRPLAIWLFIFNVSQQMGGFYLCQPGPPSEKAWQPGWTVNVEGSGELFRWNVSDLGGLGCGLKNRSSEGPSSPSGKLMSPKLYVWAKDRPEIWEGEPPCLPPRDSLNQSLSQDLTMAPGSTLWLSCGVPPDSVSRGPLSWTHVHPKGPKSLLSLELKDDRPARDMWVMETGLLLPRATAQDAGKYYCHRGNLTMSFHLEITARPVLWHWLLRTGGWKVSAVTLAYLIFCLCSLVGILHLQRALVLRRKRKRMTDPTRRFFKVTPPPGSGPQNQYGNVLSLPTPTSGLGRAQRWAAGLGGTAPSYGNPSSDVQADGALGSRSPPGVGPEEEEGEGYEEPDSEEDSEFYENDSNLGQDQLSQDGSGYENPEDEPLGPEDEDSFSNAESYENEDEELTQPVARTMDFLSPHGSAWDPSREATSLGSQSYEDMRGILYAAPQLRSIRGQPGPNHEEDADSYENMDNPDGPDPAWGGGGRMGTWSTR

B1: MOR208-CD19 FSA, variant 2176 (antibody, V domains shown)
VH: EVQLVESGGGLVKPGGSLKLSCAASGYTFTSYVMHWVRQAPGKGLEWIGYINPYNDGTKYNEKFQGRVTISSDKSISTAYMELSSLRSEDTAMYYCARGTYYYGTRVFDYWGQGTLVTVSS
VL: DIVMTQSPATLSLSPGERATLSCRSSKSLQNVNGNTYLYWFQQKPGQSPQLLIYRMSNLNSGVPDRFSGSGSGTEFTLTISSLEPEDFAVYYCMQHLEYPITFGAGTKLEIK
notes: Control; also called 2176 A; anti-CD19 warhead from MOR208
B2: scMAB_LCI_CD3xCD19_GS15-GS24_GS15-GS24, variant 1841 (bispecific antibody, human IgG1, kappa)
chain 1: QVQLVQSGGGVVQPGRSLRLSCKASGYTFTRYTMHWVRQAPGKGLEWIGYINPSRGYTNYNQKVKDRFTISRDNSKNTAFLQMDSLRPEDTGVYFCARYYDDHYCLDYWGQGTPVTVSSGGGGSGGGGSGGGGSDIQMTQSPSSLSASVGDRVTITCSASSSVSYMNWYQQTPGKAPKRWIYDTSKLASGVPSRFSGSGSGTDYTFTISSLQPEDIATYYCQQWSSNPFTFGQGTKLQITRTVAAPSVFIFPPSDEQLKSGTASVVCLLNNFYPREAKVQWKVDNALQSGNSQESVTEQDSKDSTYSLSSTLTLSKADYEKHKVYACEVTHQGLSSPVTKSFNRGECGGGGSGGGGSGGGGSGGGGSGGGGSTKGPSVFPLAPSSKSTSGGTAALGCLVKDYFPEPVTVSWNSGALTSGVHTFPAVLQSSGLYSLSSVVTVPSSSLGTQTYICNVNHKPSNTKVDKKVEPKSCDKTHTCPPCPAPELLGGPSVFLFPPKPKDTLMISRTPEVTCVVVDVSHEDPEVKFNWYVDGVEVHNAKTKPREEQYNSTYRVVSVLTVLHQDWLNGKEYKCKVSNKALPAPIEKTISKAKGQPREPQVYVYPPSRDELTKNQVSLTCLVKGFYPSDIAVEWESNGQPENNYKTTPPVLDSDGSFALVSKLTVDKSRWQQGNVFSCSVMHEALHNHYTQKSLSLSPGK
chain 2: not shown
notes: Heterodimeric IgG1 Fc; the CH3 mutations are already in the entries; also called 1841 B
B3: scMAB_LCI_CD3xCD19_GS15-GS24_GS15-GS24_SS, variant 1843 (bispecific antibody, human IgG1, kappa)
chain 1: B2 chain 1 with G44C, Q233C
chain 2: not shown
notes: Heterodimeric IgG1 Fc; the CH3 mutations are already in the entries; also called 1843 B
B4: scMAB_LCI_CD3xCD19_GS20-GS24_GS20-GS24, variant 1840 (bispecific antibody)
chain 1: QVQLVQSGGGVVQPGRSLRLSCKASGYTFTRYTMHWVRQAPGKGLEWIGYINPSRGYTNYNQKVKDRFTISRDNSKNTAFLQMDSLRPEDTGVYFCARYYDDHYCLDYWGQGTPVTVSSGGGGSGGGGSGGGGSGGGGSDIQMTQSPSSLSASVGDRVTITCSASSSVSYMNWYQQTPGKAPKRWIYDTSKLASGVPSRFSGSGSGTDYTFTISSLQPEDIATYYCQQWSSNPFTFGQGTKLQITRTVAAPSVFIFPPSDEQLKSGTASVVCLLNNFYPREAKVQWKVDNALQSGNSQESVTEQDSKDSTYSLSSTLTLSKADYEKHKVYACEVTHQGLSSPVTKSFNRGECGGGGSGGGGSGGGGSGGGGSGGGGSTKGPSVFPLAPSSKSTSGGTAALGCLVKDYFPEPVTVSWNSGALTSGVHTFPAVLQSSGLYSLSSVVTVPSSSLGTQTYICNVNHKPSNTKVDKKVEPKSCDKTHTCPPCPAPELLGGPSVFLFPPKPKDTLMISRTPEVTCVVVDVSHEDPEVKFNWYVDGVEVHNAKTKPREEQYNSTYRVVSVLTVLHQDWLNGKEYKCKVSNKALPAPIEKTISKAKGQPREPQVYVYPPSRDELTKNQVSLTCLVKGFYPSDIAVEWESNGQPENNYKTTPPVLDSDGSFALVSKLTVDKSRWQQGNVFSCSVMHEALHNHYTQKSLSLSPGK
chain 2: not shown
notes: also called 1840 A
B5: scMAB_LCI_CD3xCD19_GS20-GS24_GS20-GS24_SS, variant 1842 (bispecific antibody, human IgG1, kappa)
chain 1: B4 chain 1 with G44C, Q238C
chain 2: not shown
notes: Heterodimeric IgG1 Fc; the CH3 mutations are already in the entries; also called 1842 B
B6: scMAB_LL_CD3xCD19_GSE34_GSE34, variant 1845 (bispecific antibody)
chain 1: DIQMTQSPSSLSASVGDRVTITCSASSSVSYMNWYQQTPGKAPKRWIYDTSKLASGVPSRFSGSGSGTDYTFTISSLQPEDIATYYCQQWSSNPFTFGQGTKLQITRTVAAPSVFIFPPSDEQLKSGTASVVCLLNNFYPREAKVQWKVDNALQSGNSQESVTEQDSKDSTYSLSSTLTLSKADYEKHKVYACEVTHQGLSSPVTKSFNRGECSGGGSGGGSEGGGSEGGGSEGGGSEGGGSGGGSGQVQLVQSGGGVVQPGRSLRLSCKASGYTFTRYTMHWVRQAPGKGLEWIGYINPSRGYTNYNQKVKDRFTISRDNSKNTAFLQMDSLRPEDTGVYFCARYYDDHYCLDYWGQGTPVTVSSASTKGPSVFPLAPSSKSTSGGTAALGCLVKDYFPEPVTVSWNSGALTSGVHTFPAVLQSSGLYSLSSVVTVPSSSLGTQTYICNVNHKPSNTKVDKKVEPKSCDKTHTCPPCPAPELLGGPSVFLFPPKPKDTLMISRTPEVTCVVVDVSHEDPEVKFNWYVDGVEVHNAKTKPREEQYNSTYRVVSVLTVLHQDWLNGKEYKCKVSNKALPAPIEKTISKAKGQPREPQVYVYPPSRDELTKNQVSLTCLVKGFYPSDIAVEWESNGQPENNYKTTPPVLDSDGSFALVSKLTVDKSRWQQGNVFSCSVMHEALHNHYTQKSLSLSPGK
chain 2: not shown
notes: A, B and C are the chain A : chain B DNA ratios used in expression (1:1, 2:1, 1:2); also called 1845 A; 1845 B
B7: scMAB_LL_CD3xCD19_HH41_GSE34, variant 1846 (bispecific antibody, human IgG1, kappa)
chain 1: DIQMTQSPSSLSASVGDRVTITCSASSSVSYMNWYQQTPGKAPKRWIYDTSKLASGVPSRFSGSGSGTDYTFTISSLQPEDIATYYCQQWSSNPFTFGQGTKLQITRTVAAPSVFIFPPSDEQLKSGTASVVCLLNNFYPREAKVQWKVDNALQSGNSQESVTEQDSKDSTYSLSSTLTLSKADYEKHKVYACEVTHQGLSSPVTKSFNRGECGGSGGGSGSSADDAKKDAAKKDDAKKDDAKKDGGGSGGGSGQVQLVQSGGGVVQPGRSLRLSCKASGYTFTRYTMHWVRQAPGKGLEWIGYINPSRGYTNYNQKVKDRFTISRDNSKNTAFLQMDSLRPEDTGVYFCARYYDDHYCLDYWGQGTPVTVSSASTKGPSVFPLAPSSKSTSGGTAALGCLVKDYFPEPVTVSWNSGALTSGVHTFPAVLQSSGLYSLSSVVTVPSSSLGTQTYICNVNHKPSNTKVDKKVEPKSCDKTHTCPPCPAPELLGGPSVFLFPPKPKDTLMISRTPEVTCVVVDVSHEDPEVKFNWYVDGVEVHNAKTKPREEQYNSTYRVVSVLTVLHQDWLNGKEYKCKVSNKALPAPIEKTISKAKGQPREPQVYVYPPSRDELTKNQVSLTCLVKGFYPSDIAVEWESNGQPENNYKTTPPVLDSDGSFALVSKLTVDKSRWQQGNVFSCSVMHEALHNHYTQKSLSLSPGK
chain 2: not shown
notes: A, B and C are the chain A : chain B DNA ratios used in expression (1:1, 2:1, 1:2); also called 1846 A; 1846 B
B8: scMAB_LL_CD3xCD19_HH41_HH41, variant 1844 (bispecific antibody, human IgG1, kappa)
chain 1: B7 chain 1
chain 2: not shown
notes: B and C are the chain A : chain B DNA ratios used in expression (2:1 and 1:2); also called 1844 B; 1844 C

Biological target: T2, CD3 on HBP-ALL (CD3+) cells (UniProt P07766 23-207)
T2 construct: whole, on cells; CD3 is a multi-chain complex
Test: live cell ELISA on HBP-ALL (CD3+) cells
Procedure: (§1) These variants were tested for their ability to bind to cells expressing the target antigen using a live cell ELISA binding assay using filter plates and wash steps carried out using a vacuum manifold (method developed by Anne Marcil at the National Research Council, Montreal, Canada). The method was carried out as follows. Cells were maintained in exponential growth phase and then washed, counted and distributed at 10E5 cells per well in 50% medium, 50% blocking buffer. Dilutions of variants in blocking buffer were added to the cells and incubated for 1 hour at 4° C. After collection and four washes in medium, an HRP-conjugated goat anti-human IgG was added to cells which were incubated for 1 hour at 4° C. After collection and four washes in medium and 3 washes in PBS, TMB substrate was added to cells which were incubated for 25 minutes at room temperature. The reaction was stopped by addition of H₂SO4 and OD read at 450 nm. The ELISA results are depicted in Tables 17 and 18. A, B, and C refer to the ratio of Chain A to Chain B used in expression of the variant: Ratio A=Chain A/Chain B=1:1 A/B=50%/50%; Ratio B=Chain A/Chain B=2:1 A/B=66%/34%; Ratio C=Chain A/Chain B=1:2 A/B=34%/66%.

Binder | binding result
B1 | no binding (tested: OD450 = or < negative control 1041)

Biological target: T1, CD19 on RAJI (CD19+) cells
Test: live cell ELISA on RAJI (CD19+) cells; OD450 grade at 1/60 dilution
Procedure: as §1

OD450 | Binder
> 2 od | B2
> 2 od | B3
> 2 od | B4
> 2 od | B5
> 2 od | B6
> 2 od | B7
> 2 od | B8

Biological target: T2, CD3 on HBP-ALL (CD3+) cells
Test: live cell ELISA on HBP-ALL (CD3+) cells; OD450 grade at 1/60 dilution
Procedure: as §1

OD450 | Binder
1 to 2 od | B2
1 to 2 od | B3
1 to 2 od | B4
1 to 2 od | B5
1 to 2 od | B6
1 to 2 od | B7
1 to 2 od | B8
